Laboratory results taken from IntAct's records for PubMed 23877428.

B1: Scaffold protein ILK (Homo sapiens), Q13418 (parent)
chain: MDDIFTQCREGNAVAVRLWLDNTENDLNQGDDHGFSPLHWACREGRSAVVEMLIMRGARINVMNRGDDTPLHLAASHGHRDIVQKLLQYKADINAVNEHGNVPLHYACFWGQDQVAEDLVANGALVSICNKYGEMPVDKAKAPLRELLRERAEKMGQNLNRIPYKDTFWKGTTRTRPRNGTLNKHSGIDFKQLNFLTKLNENHSGELWKGRWQGNDIVVKVLKVRDWSTRKSRDFNEECPRLRIFSHPNVLPVLGACQSPPAPHPTLITHWMPYGSLYNVLHEGTNFVVDQSQAVKFALDMARGMAFLHTLEPLIPRHALNSRSVMIDEDMTARISMADVKFSFQCPGRMYAPAWVAPEALQKKPEDTNRRSADMWSFAVLLWELVTREVPFADLSNMEIGMKVALEGLRPTIPPGISPHVCKLMKICMNEDPAKRPKFDMIVPILEKMQDK
partner: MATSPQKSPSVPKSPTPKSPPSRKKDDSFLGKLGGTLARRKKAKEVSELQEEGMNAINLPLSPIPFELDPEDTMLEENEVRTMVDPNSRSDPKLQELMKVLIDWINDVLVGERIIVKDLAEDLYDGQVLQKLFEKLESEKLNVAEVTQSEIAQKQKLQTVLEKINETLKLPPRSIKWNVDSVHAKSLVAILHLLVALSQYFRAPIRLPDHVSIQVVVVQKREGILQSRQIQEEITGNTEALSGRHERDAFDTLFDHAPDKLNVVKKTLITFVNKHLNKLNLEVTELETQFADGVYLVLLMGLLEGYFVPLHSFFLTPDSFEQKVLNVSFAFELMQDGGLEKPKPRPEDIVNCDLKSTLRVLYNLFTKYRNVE

Variants of: B1
Details: with parva_human PARVA
With MDDIFTQCREGNAVAVRLWLDNTENDLNQGDDHGFSPLHWACREGRSAVVEMLIMRGARINVMNRGDDTPLHLAASHGHRDIVQKLLQYKADINAVNEHGNVPLHYACFWGQDQVAEDLVANGALVSICNKYGEMPVDKAKAPLRELLRERAEKMGQNLNRIPYKDTFWKGTTRTRPRNGTLNKHSGIDFKQLNFLTKLNENHSGELWKGRWQGNDIVVKVLKVRDWSTRKSRDFNEECPRLRIFSHPNVLPVLGACQSPPAPHPTLITHWMPYGSLYNVLHEGTNFVVDQSQAVKFALDMARGMAFLHTLEPLIPRHALNSRSVMIDEDMTARISMADVKFSFQCPGRMYAPAWVAPEALQKKPEDTNRRSADMWSFAVLLWELVTREVPFADLSNMEIGAAVALEGLRPTIPPGISPHVCKLMKICMNEDPAKRPKFDMIVPILEKMQDK [M402A;K403A] the “effect of a mutation on the interaction” value was “disrupting interaction”.
